Paper PMC4288179, “Synergic interplay of the La motif, RRM1 and the interdomain linker of LARP6 in the recognition of collagen mRNA expands the RNA binding repertoire of the La module”

What was measured:
[1] = molecular target: T1, HsLARP6 La module (70-300) (Homo sapiens, UniProt Q9BRS8 70-300); assay: ITC; 200 mM KCl; ITC: 20 mM Tris pH 7.25, 100 mM KCl, 5 mM MgCl2, 1 mM DTT, 298 K; protein titrated into RNA; settings: protein: recombinant; tags: N-terminal His6, TEV-cleaved for initial ITC; stem-loop with internal bulge
T1 sequence: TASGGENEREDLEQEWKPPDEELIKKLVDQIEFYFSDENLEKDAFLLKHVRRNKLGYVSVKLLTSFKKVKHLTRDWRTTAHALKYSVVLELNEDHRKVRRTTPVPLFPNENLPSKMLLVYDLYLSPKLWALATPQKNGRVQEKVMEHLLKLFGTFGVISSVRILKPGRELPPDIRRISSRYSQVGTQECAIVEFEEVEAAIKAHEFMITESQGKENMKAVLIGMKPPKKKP

HsLARP6(74-313) = molecular target: T2, HsLARP6(74-313) (Homo sapiens, UniProt Q9BRS8 74-313); assay: ITC; ITC: 20 mM Tris pH 7.25, 100 mM KCl, 5 mM MgCl2, 1 mM DTT, 298 K; protein titrated into RNA; settings: protein: recombinant; tags: N-terminal His6 (TEV-cleavable); stem-loop with internal bulge
T2 sequence: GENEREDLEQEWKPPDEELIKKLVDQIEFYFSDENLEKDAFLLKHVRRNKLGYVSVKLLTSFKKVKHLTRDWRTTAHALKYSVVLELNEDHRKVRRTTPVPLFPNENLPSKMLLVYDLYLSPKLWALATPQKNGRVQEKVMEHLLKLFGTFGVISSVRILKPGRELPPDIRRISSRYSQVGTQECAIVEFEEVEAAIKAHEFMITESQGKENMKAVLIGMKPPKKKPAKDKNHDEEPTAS

HsLARP6(70-300) R237A = molecular target: T3, HsLARP6(70-300) R237A (Homo sapiens, UniProt Q9BRS8 70-300, R237A); assay: as above; settings: protein: recombinant; tags: N-terminal His6 (TEV-cleavable); stem-loop with internal bulge
T3 sequence: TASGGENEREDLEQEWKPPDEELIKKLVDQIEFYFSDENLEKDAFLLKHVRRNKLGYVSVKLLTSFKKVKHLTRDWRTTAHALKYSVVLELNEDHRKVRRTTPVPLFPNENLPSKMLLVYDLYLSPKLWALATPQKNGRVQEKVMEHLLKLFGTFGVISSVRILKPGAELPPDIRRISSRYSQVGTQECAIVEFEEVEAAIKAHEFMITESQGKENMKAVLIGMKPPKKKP

HsLARP6(70-300) R244A = molecular target: T4, HsLARP6(70-300) R244A (Homo sapiens, UniProt Q9BRS8 70-300, R244A); assay: as above; settings: protein: recombinant; tags: N-terminal His6 (TEV-cleavable); stem-loop with internal bulge
T4 sequence: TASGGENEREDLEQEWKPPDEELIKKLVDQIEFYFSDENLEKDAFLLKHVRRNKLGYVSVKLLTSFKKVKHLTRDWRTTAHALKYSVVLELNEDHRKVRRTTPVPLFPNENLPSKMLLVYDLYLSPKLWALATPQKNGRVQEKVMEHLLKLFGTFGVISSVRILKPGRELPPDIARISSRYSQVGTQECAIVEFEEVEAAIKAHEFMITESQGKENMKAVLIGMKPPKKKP

HsLARP6(70-300) R231A = molecular target: T5, HsLARP6(70-300) R231A (Homo sapiens, UniProt Q9BRS8 70-300, R231A); assay: as above; settings: protein: recombinant; tags: N-terminal His6 (TEV-cleavable); stem-loop with internal bulge
T5 sequence: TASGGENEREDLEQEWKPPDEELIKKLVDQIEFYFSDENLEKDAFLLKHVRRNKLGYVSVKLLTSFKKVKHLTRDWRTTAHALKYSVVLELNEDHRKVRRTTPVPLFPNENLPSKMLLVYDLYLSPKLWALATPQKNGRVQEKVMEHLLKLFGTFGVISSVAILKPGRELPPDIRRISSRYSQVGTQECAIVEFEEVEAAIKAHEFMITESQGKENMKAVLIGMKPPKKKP

RRM1 chimera = molecular target: T6, RRM1 chimera (Homo sapiens, UniProt Q9BRS8 70-179+P05455:111-202, internal_change); assay: as above; settings: protein: recombinant; tags: N-terminal His6 (TEV-cleavable); stem-loop with internal bulge
T6 sequence: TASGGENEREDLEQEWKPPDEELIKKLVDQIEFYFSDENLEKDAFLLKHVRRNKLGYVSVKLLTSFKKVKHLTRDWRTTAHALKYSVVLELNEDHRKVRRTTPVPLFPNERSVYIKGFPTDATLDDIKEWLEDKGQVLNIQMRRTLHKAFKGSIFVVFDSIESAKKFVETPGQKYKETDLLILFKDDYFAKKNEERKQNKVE

Loop1 chimera = molecular target: T7, Loop1 chimera (Homo sapiens, UniProt Q9BRS8 70-189+P05455:116-122+209-300, internal_change); assay: as above; settings: protein: recombinant; tags: N-terminal His6 (TEV-cleavable); stem-loop with internal bulge
T7 sequence: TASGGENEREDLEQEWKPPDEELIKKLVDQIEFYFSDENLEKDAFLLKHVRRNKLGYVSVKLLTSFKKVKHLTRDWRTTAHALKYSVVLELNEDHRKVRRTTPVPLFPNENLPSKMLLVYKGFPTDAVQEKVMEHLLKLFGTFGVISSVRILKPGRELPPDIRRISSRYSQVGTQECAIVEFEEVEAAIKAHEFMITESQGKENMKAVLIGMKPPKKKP

Interlinker chimera = molecular target: T8, Interlinker chimera (Homo sapiens, UniProt Q9BRS8 70-178+P05455:101-111+181-300, internal_change); assay: ITC; text says 500-fold decrease; table gives about 14-fold; ITC: 20 mM Tris pH 7.25, 100 mM KCl, 5 mM MgCl2, 1 mM DTT, 298 K; protein titrated into RNA; settings: protein: recombinant; tags: N-terminal His6 (TEV-cleavable); stem-loop with internal bulge
T8 sequence: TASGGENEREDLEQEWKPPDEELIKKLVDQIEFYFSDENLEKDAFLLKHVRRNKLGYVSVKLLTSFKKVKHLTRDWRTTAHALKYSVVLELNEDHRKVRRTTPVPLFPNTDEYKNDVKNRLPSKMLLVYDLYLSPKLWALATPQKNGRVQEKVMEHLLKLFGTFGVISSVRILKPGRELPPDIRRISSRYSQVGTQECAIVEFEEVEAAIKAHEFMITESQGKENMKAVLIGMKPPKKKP

Work on CCACAAAGAGUCUACAUGUCUAGGGUCUAGACAUGUUCAGCUUUGUGG (structured_RNA) [48 nt RNA (collagen alpha1(I) 5' UTR SL)] yielded a Kd [1] of 50 nM, a Kd (HsLARP6(74-313)) of 26 nM and a Kd (HsLARP6(70-300) R237A) of 15 nM. The Kd (HsLARP6(70-300) R244A) was 71 nM, the Kd (HsLARP6(70-300) R231A) was 20 nM and the binding result (RRM1 chimera) was “no binding”. It also gave a Kd (Loop1 chimera) of 18 nM and a Kd (Interlinker chimera) of 667 nM.
